Common to all, as to assay: SPR; 500 nM protein; aptamer immobilized; SPR (Biacore): 145 mM NaCl, 5.4 mM KCl, 0.8 mM MgCl2, 1.8 mM CaCl2, 20 mM Tris-HCl pH 7.6, 0.05% Tween 20; temperature not given
What all share (conditions): protein: recombinant; chain copies: 2

Data set [1] concerns the target mouse TGF-β1 (active) (Mus musculus, UniProt P04202 279-390).
In data set [2] the target is human TGF-β1 (active) (Homo sapiens, UniProt P01137 279-390).
Data set [3] concerns the target T1, human TGF-β3 (Homo sapiens, UniProt P10600 301-412).
T1 sequence: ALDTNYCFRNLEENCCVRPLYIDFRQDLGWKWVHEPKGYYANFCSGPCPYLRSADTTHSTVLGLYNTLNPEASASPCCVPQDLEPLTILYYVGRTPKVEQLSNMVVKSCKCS

The target in data set [4] is T2, human TGF-β2 (Homo sapiens, UniProt P61812 303-414).
T2 sequence: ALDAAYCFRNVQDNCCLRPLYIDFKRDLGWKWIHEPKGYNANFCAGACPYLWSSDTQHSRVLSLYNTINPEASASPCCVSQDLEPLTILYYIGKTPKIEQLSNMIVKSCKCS

This note sets out measurements from paper PMC9481871, “Anti-TGF-β1 aptamer enhances therapeutic effect of tyrosine kinase inhibitor, gefitinib, on non-small cell lung cancer in xenograft model”.

mouse TGF-β1 (active), sequence (P04202 279-390): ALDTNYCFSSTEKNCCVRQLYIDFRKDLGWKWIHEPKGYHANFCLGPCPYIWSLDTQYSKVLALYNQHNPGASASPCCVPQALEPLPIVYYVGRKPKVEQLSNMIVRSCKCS
human TGF-β1 (active), sequence (P01137 279-390): as the sequence (P04202 279-390) above, with S75A counted along it

B1: APT-β1 (structured_RNA)
RNA: GGCAUAAGGGAGGGGAGACUUGUGGAGGGCAAG
modifications: 2'-fluoro pyrimidines (SELEX with 2'-F-CTP and 2'-F-UTP); parent of APT-β1-OMe without 2'-OMe
In the case of B1, the binding result in data set [1] is “binds”; in data set [2], “binds”; in data set [3] it was “no binding”; in data set [4], “no binding”.
